Measurements as given in patent US20250269048A1 (BIVICTRIX, published 2025).
Substitutions are numbered along the chain they refer to.

B1: CD7-PP-8 CD7 binding arm (Fab, V domains shown)
VH: QVQLQESGAELVKPGASVKLSCKASGYTFTSYWMHWVKQRPGQGLEWIGKINPSNGKTNYNEKFKSKATLTVDKSSSTAYMQLSSLTSEDSAVYYCARGGVYYDLYYAALDYWGQGTTVTVSS
VL: DIELTQSPATLSVTPGDSVSLSCRASQSISNNLHWYQQKSHESPRLLIKSASQSISGIPSRFSGSGSGTDFTLSINSVETEDFGMYFCQQSNSWPYTFGGGTKLEIKR
B2: CD7-PP-2 CD7 binding arm (Fab, V domains shown)
VH: B1 VH with K57G, A108Y
VL: B1 VL
notes: Heavy chain Arg57Gly
B3: CD7-PP-7 CD7 binding arm (Fab, V domains shown)
VH: B1 VH with K57G
VL: B1 VL
notes: Heavy chain Arg57Gly/Tyr108Ala
B4: CD7-PP-6 binding arm (Fab, V domains shown)
VH: B1 VH with K57R, D104A, A108Y
VL: B1 VL
notes: Heavy chain Asp104Ala
B5: CD7-PP-3 CD7 binding arm (Fab, V domains shown)
VH: B1 VH with A108Y
VL: B1 VL
notes: Heavy chain Arg57Lys
B6: 7-PP-11 (Fab, V domains shown)
VH: B1 VH with K57R, D104A
VL: B1 VL
B7: CD7-PP-12 CD7 binding arm (Fab, V domains shown)
VH: B1 VH with K57R, A108Y
VL: B1 VL with Q27A
notes: Light chain Gln27Ala
B8: 7-PP-4 (Fab, V domains shown)
VH: B1 VH with K57R, Y102T, A108Y
VL: B1 VL
B9: 7-PP-10 (Fab, V domains shown)
VH: B1 VH with K57R, L105G
VL: B1 VL
B10: 7-PP-5 (Fab, V domains shown)
VH: B1 VH with K57R, L105G, A108Y
VL: B1 VL
B11: 7-PP-9 (Fab, V domains shown)
VH: B1 VH with K57R, Y102T
VL: B1 VL
B12: BVX100-MMAE (bispecific antibody)
heavy: QVQLQESGAELVKPGASVKLSCKASGYTFTSYWMHWVKQRPGQGLEWIGKINPSNGRTNYNEKFKSKATLTVDKSSSTAYMQLSSLTSEDSAVYYCARGGVYYDLYYYALDYWGQGTTVTVSSASTKGPSVFPLAPSSKSTSGGTAALGCLVKDYFPEPVTVSWNSGALTSGVHTFPAVLQSSGLYSLSSVVTVPSSSLGTQTYCCNVNHKPSNTKVDKKVEPKSCDKT
light: DIELTQSPATLSVTPGDSVSLSCRASQSISNNLHWYQQKSHESPRLLIKSASQSISGIPSRFSGSGSGTDFTLSINSVETEDFGMYFCQQSNSWPYTFGGGTKLEIKRTVAAPSVFIFPPSDEQLKSGTASVVCLLNNFYPREAKVQWKVDNALQSGNSQESVTEQDSKDSTYSLSSTLTLSKADYEKHKVYACEVTHQGLSSPVTKSFNRGEC
VH: EVQLVQSGAEVKKPGSSVKVSCKASGYTITDSNIHWVRQAPGQSLEWIGYIYPYNGGTDYNQKFKNRATLTVDNPTNTAYMELSSLRSEDTAFYYCVNGNPWLAYWGQGTLVTVSS
VL: DIQLTQSPSTLSASVGDRVTIICRASESLDNYGIRFLTWFQQKPGKAPKLLMYAASNQGSGVPSRFSGSGSGTEFTLTISSLQPDDFATYYCQQTKEVPWSFGQGTKLEIK
B13: BVX130-MMAE (bispecific antibody)
heavy: B12 heavy with D104A
light: B12 light
VH: B12 VH
VL: B12 VL
B14: BVX160-MMAE (bispecific antibody)
heavy: B12 heavy with Y108A
light: B12 light
VH: B12 VH
VL: B12 VL
B15: BVX150-MMAE (bispecific antibody)
heavy: B12 heavy with R57K, Y108A
light: B12 light
VH: B12 VH
VL: B12 VL
B16: BVX140-MMAE (bispecific antibody)
heavy: B12 heavy with R57G, Y108A
light: B12 light
VH: B12 VH
VL: B12 VL
B17: BVX120-MMAE (bispecific antibody)
heavy: B12 heavy with R57K
light: B12 light
VH: B12 VH
VL: B12 VL
B18: BVX110-MMAE (bispecific antibody)
heavy: B12 heavy with R57G
light: B12 light
VH: B12 VH
VL: B12 VL
B19: BVX160 (bispecific antibody)
heavy: B12 heavy with Y108A
light: B12 light
VH: B12 VH
VL: B12 VL
notes: bi-Fab; also called CD33-PP-1 WT/CD7-PP-13
B20: BVX162 (bispecific antibody)
heavy: B12 heavy with Y108A
light: B12 light
VH: B12 VH with W102Y, Y105A
VL: B12 VL
notes: bi-Fab; also called CD33-PP-7/CD7-PP-13
B21: BVX100 (bispecific antibody)
heavy: B12 heavy
light: B12 light
VH: B12 VH
VL: B12 VL
notes: also called CD33-PP-1 WT/CD7-PP-1 WT

Biological target: T1, human CD7 (human, UniProt P09564 26-180, limits assumed)
T1 construct: The construct is not described
T1 sequence (looked up): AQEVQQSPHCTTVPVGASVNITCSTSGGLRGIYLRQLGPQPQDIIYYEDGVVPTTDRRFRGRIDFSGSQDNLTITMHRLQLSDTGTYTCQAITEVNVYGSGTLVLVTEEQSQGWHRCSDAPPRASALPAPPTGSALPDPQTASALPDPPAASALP
Assay: SPR

| Kd | Binder |
| --- | --- |
| 229 nM | B1 |
| 75.7 nM | B2 |
| 541 nM | B3 |
| 45.2 nM | B4 |
| 32.5 nM | B5 |
| 246 nM | B6 |
| 5.46 nM | B7 |

Biological target: T2, human CD7 on cells (human, UniProt P09564 26-240)
T2 construct: whole, on cells; Target of the FACS and cell capture values and of the kill assays on CD7 single positive cells; also called CD7+ cells; Jurkat (CD33-/CD7+)
T2 sequence (looked up): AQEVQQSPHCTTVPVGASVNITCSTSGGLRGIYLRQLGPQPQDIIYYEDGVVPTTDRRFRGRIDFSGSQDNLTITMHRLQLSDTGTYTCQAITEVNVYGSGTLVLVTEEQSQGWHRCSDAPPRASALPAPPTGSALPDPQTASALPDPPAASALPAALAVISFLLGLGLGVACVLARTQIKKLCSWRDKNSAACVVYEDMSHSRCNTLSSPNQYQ
Assay: FACS; cells not named

| FACS binding | Binder |
| --- | --- |
| 1990 | B8 |
| 96.8 | B1 |
| 335 | B9 |
| 34.6 | B2 |
| 267 | B3 |
| 9.76 | B4 |
| 13 | B5 |
| 55.9 | B6 |
| 268 | B10 |
| 0.002 | B7 |
| 275 | B11 |

Biological target: T1, human CD7
Assay: SPR; reference 7-AA-WT

| Fold Reduction in binding affinity compared to WT (Kd) | Binder |
| --- | --- |
| 87.2 fold | B1 |
| 28.8 fold | B2 |
| 206 fold | B3 |
| 17.2 fold | B4 |
| 12.4 fold | B5 |
| 93.7 fold | B6 |
| 2.08 fold | B7 |

Biological target: T2, human CD7 on cells
Assay: cell-based or functional assay

| Binder | EC50 (nM), cytotoxicity (MTS, 96 h) on Jurkat cells (CD7+/CD33-) |
| --- | --- |
| B12 | 0.92 nM |
| B13 | 5.83 nM |
| B14 | 7.31 nM |
| B15 | 1.6 nM |
| B16 | 22.8 nM |
| B17 | 1.52 nM |
| B18 | 4.52 nM |

Biological target: human CD33 on cells (human, UniProt P20138 18-364)
Assay: cell-based or functional assay

human CD33 on cells, sequence (P20138 18-364): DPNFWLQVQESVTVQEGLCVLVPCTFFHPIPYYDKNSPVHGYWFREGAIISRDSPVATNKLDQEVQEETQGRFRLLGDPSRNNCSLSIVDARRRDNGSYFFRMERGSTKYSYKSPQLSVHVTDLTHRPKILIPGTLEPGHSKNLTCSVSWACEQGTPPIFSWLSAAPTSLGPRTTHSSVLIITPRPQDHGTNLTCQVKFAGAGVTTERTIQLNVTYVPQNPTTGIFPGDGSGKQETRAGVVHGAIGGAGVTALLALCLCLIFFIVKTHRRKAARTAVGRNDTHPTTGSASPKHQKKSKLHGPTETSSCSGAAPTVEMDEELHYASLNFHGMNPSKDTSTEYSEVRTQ

| Binder | EC50 (nM), cytotoxicity (MTS, 96 h) on MV4.11 cells (CD7-/CD33+) | EC50 (nM), cytotoxicity (MTS, 96 h) on SHI-1 cells (CD7-/CD33+) |
| --- | --- | --- |
| B12 | 10.8 nM | 2.26 nM |
| B13 | 24.1 nM | 17.5 nM |
| B15 | 9.19 nM | 5.23 nM |
| B17 | 16.5 nM | 7.21 nM |
| B18 | 27 nM | 11.4 nM |

Biological target: T1, human CD7
Assay: SPR; reference 7-PP-1 WT

| Fold Reduction in binding affinity compared to PP WT (Kd) | Binder |
| --- | --- |
| 64.3 fold | B1 |
| 21.3 fold | B2 |
| 152 fold | B3 |
| 12.7 fold | B4 |
| 9.13 fold | B5 |
| 69.1 fold | B6 |
| 1.53 fold | B7 |

Biological target: T2, human CD7 on cells
Assay: FACS; reference 7-PP-1 WT

| FACS fold reduction compared to PP WT | Binder |
| --- | --- |
| 3740 fold | B8 |
| 182 fold | B1 |
| 628 fold | B9 |
| 64.9 fold | B2 |
| 502 fold | B3 |
| 18.3 fold | B4 |
| 24.5 fold | B5 |
| 105 fold | B6 |
| 503 fold | B10 |
| 0.004 fold | B7 |
| 517 fold | B11 |

Biological target: T1, human CD7
Assay: SPR (Kd); value of the CD7 arm 7-PP-13

| Fold reduction in binding affinity vs 7-PP-1 WT | Binder |
| --- | --- |
| 20.3 fold | B19 |
| 20.3 fold | B20 |

Biological target: T3, human CD33 (human, UniProt P20138 18-259, limits assumed)
T3 construct: The construct is not described
Assay: SPR (Kd); value of the CD33 arm 33-PP-7

T3 sequence (P20138 18-259 limits assumed): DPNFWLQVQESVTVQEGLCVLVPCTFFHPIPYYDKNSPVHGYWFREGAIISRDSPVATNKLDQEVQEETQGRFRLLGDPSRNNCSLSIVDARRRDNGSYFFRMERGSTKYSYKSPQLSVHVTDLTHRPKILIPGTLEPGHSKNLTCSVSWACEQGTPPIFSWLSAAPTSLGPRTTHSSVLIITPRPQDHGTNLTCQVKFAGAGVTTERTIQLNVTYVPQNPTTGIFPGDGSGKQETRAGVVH

| Fold reduction in binding affinity vs 33-PP-1 WT | Binder |
| --- | --- |
| 68 fold | B20 |

Biological target: T1, human CD7
Assay: SPR (Kd); value of the CD7 arm 7-PP-1 WT

| Fold reduction in binding affinity vs 7-PP-1 WT | Binder |
| --- | --- |
| 0 fold | B21 |

Biological target: T3, human CD33
Assay: SPR (Kd); value of the CD33 arm 33-PP-1 WT

| Fold reduction in binding affinity vs 33-PP-1 WT | Binder |
| --- | --- |
| 0 fold | B21 |
| 0 fold | B19 |
